T1: CXCL3 (GROγ) (UniProt P19876 35-107)
T1 construct: also called CXCL3 (R&D Systems)
T1 sequence (looked up): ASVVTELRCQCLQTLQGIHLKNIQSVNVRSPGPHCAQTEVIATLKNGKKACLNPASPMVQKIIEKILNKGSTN

T2: CXCL5 (ENA-78) (UniProt P42830 37-114, limits assumed)
T2 construct: also called CXCL5 (R&D Systems)
T2 sequence (looked up): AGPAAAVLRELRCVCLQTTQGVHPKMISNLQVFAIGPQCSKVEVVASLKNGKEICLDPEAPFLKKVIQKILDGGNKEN

T3: CXCL8 (IL-8) (UniProt P10145 28-99)
T3 construct: also called CXCL8 (R&D Systems)
T3 sequence (looked up): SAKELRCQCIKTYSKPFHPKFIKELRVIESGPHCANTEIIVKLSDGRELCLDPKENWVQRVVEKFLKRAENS

T4: CXCL10 (IP10) (UniProt P02778 22-98)
T4 construct: also called CXCL10 (R&D Systems)
T4 sequence (looked up): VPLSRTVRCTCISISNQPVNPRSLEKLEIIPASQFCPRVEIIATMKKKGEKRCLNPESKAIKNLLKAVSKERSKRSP

T5: CXCL6 (GCP-2) (UniProt P80162 38-114, limits assumed)
T5 construct: also called CXCL6 (R&D Systems)
T5 sequence (looked up): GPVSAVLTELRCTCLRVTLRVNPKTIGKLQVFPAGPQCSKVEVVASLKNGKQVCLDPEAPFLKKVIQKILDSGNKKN

T6: Glycosylated human CXCL13 (MEL cell derived) (human, UniProt O43927 23-104, glycosylated (site not stated))
T6 sequence: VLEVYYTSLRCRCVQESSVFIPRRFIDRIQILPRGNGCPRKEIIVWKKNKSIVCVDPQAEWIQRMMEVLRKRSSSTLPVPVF

T7: Biotinylated human CXCL13 (Almac) (human, UniProt O43927 23-109, biotin at the most C terminal lysine residue)
T7 construct: also called human CXCL13 biotinylated near the C-terminus (Almac custom synthesis)
T7 sequence: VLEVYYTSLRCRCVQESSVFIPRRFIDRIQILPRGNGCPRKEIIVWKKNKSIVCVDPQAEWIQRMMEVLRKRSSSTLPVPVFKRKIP

B1: Human CXCL13 (MEL cell derived), unglycosylated (ligand)
chain: T6 sequence
notes: also called hCXCL13; Unglycosylated hCXCL13
B2: Cynomolgus CXCL13 (MEL cell derived) (ligand)
chain: T6 sequence with S8H, L32S, I52V, M65I, V68M, R72K, L77P
modifications: glycosylated (site not stated)
notes: also called Cyno CXCL13; glycosylated cyno CXCL13
B3: Antibody 1 (germlined IgG1) (antibody, V domains shown)
VH: EVQLLESGGGLVQPGGSLRLSCAASGFTFGNSWMSWVRQAPGKGLEWVSAISGSGGSTYYADSVKGRFTISRDNSKNTLYLQMNSLRAEDTAVYYCTRDLPGIAVAGYWGQGTLVTVSS
VL: DTQMTQSPSTLSASVGDRVTITCRASEGIYHWLAWYQQKPGKAPKLLIYKASSLASGVPSRFSGSGSGTEFTLTISSLQPDDFATYYCQQYSNYPLTFGGGTKLEIKR
notes: also called germlined Antibody 1 IgG1; antibody 1 (IgG1)
B4: Antibody 1 (germlined IgG1) Fab (Fab, V domains shown)
VH: B3 VH
VL: B3 VL
notes: also called Size Exclusion Chromatography monomerized Fab fragments of Antibody 1

Positions count from the first letter of the chain named. Where “and” joins values, the source holds several entries; their conditions need not be identical. Equal values may be shown once.

The target of experiment [1] is B3. The experiment can be described thus: CXCL13 FLISA competition: soluble chemokine titrated against 0.31 nM Antibody 1 germlined IgG1 binding to bead-bound biotinylated human CXCL13 (n = 1). The protocol:
(§1) Samples and reagents were diluted in Assay Buffer (Phosphate Buffered Saline with 0.1% BSA, 0.1% Tween-20 and 0.01% sodium azide). 0.25 nM biotinylated CXCL13 (Almac) was pre-incubated with 0.004% w/v 6-8 μm streptavidin coated polystyrene particles (Spherotec SVP-60-5) for 1 hour at room temperature. The beads were then centrifuged at 3000 rpm for 5 minutes, the supernatant discarded and the pellet resuspended in the original volume of assay buffer to give a 0.004% w/v bead/biotinylated humanCXCL13 mix. 10 μL competitor, assay buffer (total binding control) or excess humanCXCL13 (Non specific binding (NSB) control) was added to a 384 well clear-bottomed non-binding surface assay plate (Costar 3655). […] FL1 signal was read on the Applied Biosystems Cellular Detection System 8200. Data was analysed using the Wang Goldman algorithm with gating of size 3-12, colour ratio <0.4, minimum count 20.
(§2) Specificity of the germlined Antibody 1 IgG₁ for human CXCL13 (MEL cell derived) over other members of the CXC family of chemokines was determined using the CXCL13 FLISA (Fluorescence linked immunosorbent assay). […] The biotinylated human CXCL13 antibody-binding interaction was detected with a fluorescently tagged anti-human IgG antibody using Fluorescence Microvolume assay Technology (refer to “Assay Materials and Methods” for details). […]

Experiment [2] concerns the target B3. Nature of the experiment: CXCL13 FLISA competition: soluble chemokine titrated against Antibody 1 germlined IgG1 binding to bead-bound biotinylated human CXCL13 (n = 1). The protocol: as §1, §2
Experiment [3] concerns the target B2. The experiment can be described thus: SPR (BIAcore 2000), IgG amine-coupled to a CM3 chip, cyno CXCL13 0.10-0.60 nM flowed; 1:1 Langmuir (n=1, initial data). The protocol:
(§3) Antibodies were diluted to 1.0 μg mL-1 in 10 mM acetate buffer pH 4.5. Standard amine linkage chemistry (using amine coupling kit BR-1000-50) was employed to create blank (Fc 1) and 500 RU surfaces of IgG on a CM3 chip (BIAcore, BR-1005-41, lot: 1160100 expiry April '07). The wash solution employed was Glycine pH 2.0.
(§4) Flow of human and cynomolgus CXCL13 over chip surfaces. A dilution series of each CXCL13 (0.10, 0.20, 0.30, 0.40, 0.50 and 0.60 nM) was constructed in HBS-EP buffer and flowed at 30 μL min-1 over all flow cells (association time of 4 minutes, dissociation for 10 minutes and regeneration with two 20 μL pulses of 10 mM Glycine pH 2.0). Blank injections were made with the same buffer. All solutions were prepared and stored in polypropylene.
(In general: Surface plasmon resonance follows binding to a sensor surface in real time, without labels.)

Experiment [4] deals with B1. Nature of the experiment: cell-based or functional assay.
The target in experiment [5] is T1, CXCL3 (GROγ). The experiment can be described thus: CXCL13 FLISA competition assay (FMAT, biotinylated human CXCL13 on streptavidin beads). The protocol:
(§5) Samples and reagents were diluted in Assay Buffer (Phosphate Buffered Saline with 0.1% BSA, 0.1% Tween-20 and 0.01% sodium azide). 0.25 nM biotinylated CXCL13 (Almac) was pre-incubated with 0.004% w/v 6-8 μm streptavidin coated polystyrene particles (Spherotec SVP-60-5) for 1 hour at room temperature. The beads were then centrifuged at 3000 rpm for 5 minutes, the supernatant discarded and the pellet resuspended in the original volume of assay buffer to give a 0.004% w/v bead/biotinylated humanCXCL13 mix. 10 μL competitor, assay buffer (total binding control) or excess humanCXCL13 (Non specific binding (NSB) control) was added to a 384 well clear-bottomed non-binding surface assay plate (Costar 3655). 10 μL 5 nM Goat anti-human (H+L) Alexa Fluor®-647 (Invitrogen A21445), 10 μL 0.31 nM Antibody 1 (germlined IgG) and 20 μL Bead/biotinylated CXCL13 mix were then added and the plates incubated for 4 hours at room temperature. FL1 signal was read on the Applied Biosystems Cellular Detection System 8200. Data was analysed using the Wang Goldman algorithm with gating of size 3-12, colour ratio <0.4, minimum count 20.
(§6) Specificity of the germlined Antibody 1 IgG₁ for human CXCL13 (MEL cell derived) over other members of the CXC family of chemokines was determined using the CXCL13 FLISA (Fluorescence linked immunosorbent assay). In this assay the chemokines CXCL3 (R&D Systems), CXCL5 (R&D Systems), CXCL6 (R&D Systems), CXCL8 (R&D Systems), CXCL10 (R&D Systems) and CXCL12 (Peprotech) were tested for competition with biotinylated human CXCL13 (Almac) immobilised on a streptavidin bead for binding to germlined Antibody 1 IgG₁. The biotinylated human CXCL13 antibody-binding interaction was detected with a fluorescently tagged anti-human IgG antibody using Fluorescence Microvolume assay Technology (refer to “Assay Materials and Methods” for details). Standard chemokine names (Zlotnik and Yoshie, 2000) are given together with their most commonly used synonym.

In experiment [6] the target is T2, CXCL5 (ENA-78). Described as above. The protocol:
as §5, §6

The target of experiment [7] is T8, CXCL12 (SDF-1α) (UniProt P48061-2 22-89).
T8 construct: also called CXCL12 (Peprotech)
Described as above. The protocol: as §5, §6

In experiment [8] the target is T3, CXCL8 (IL-8). The experiment is described as above. The protocol: as §5, §6
In experiment [9] the target is T4, CXCL10 (IP10). Described as above. The procedure:
as §5, §6

Experiment [10] has as its target T5, CXCL6 (GCP-2). The experiment is described as above. The protocol:
as §5, §6

Experiment [11] addresses B2. The experiment can be described thus: cell-based or functional assay.
The target of experiment [12] is T6, Glycosylated human CXCL13 (MEL cell …). Nature of the experiment: cell-based or functional assay.
Experiment [13] has as its target B1. The experiment can be described thus: cell-based or functional assay. This is another data set of the same source.
In experiment [14] the target is B2. Nature of the experiment: cell-based or functional assay.
Experiment [15] deals with B1. The experiment can be described thus: cell-based or functional assay. The source holds these as a separate data set.
The target of experiment [16] is B2. Nature of the experiment: SPR (BIAcore 2000), IgG captured on Protein G', cyno CXCL13 0.125-40 nM flowed; 1:1 Langmuir with mass transport limitation. An excerpt:
(§7) Standard amine linkage chemistry was employed to create blank and 265 RU surfaces of Protein G′ (Sigma P4689) on Flow cells (Fc) 1 and 2, respectively, of a normalized CM5 chip (BIAcore, BR-1000-14). This Fc 2 Protein G′ surface was used to capture 240-385 RUs Antibody 1 (germlined IgG₁).

Experiment [17] addresses B1. The experiment can be described thus: SPR (BIAcore 2000), IgG captured on Protein G', human CXCL13 flowed; average of the 3 experiments of Table 10a.
Source text: as §7

The target in experiment [18] is B1. The experiment can be described thus: SPR (BIAcore 2000), IgG amine-coupled to a CM3 chip, human CXCL13 0.10-0.60 nM flowed; 1:1 Langmuir (n=1, initial data). The procedure:
as §3, §4

The target of experiment [19] is B2. The experiment can be described thus: SPR (BIAcore 2000), IgG captured on Protein G', cyno CXCL13 flowed; average of the 2 experiments of Table 11.
Source text: as §7

Experiment [20] addresses B1. Nature of the experiment: cell-based or functional assay. The source holds these as a separate data set.
The target of experiment [21] is B1. The experiment can be described thus: SPR (BIAcore 2000), IgG captured on Protein G', human CXCL13 0.25-20 nM flowed; 1:1 Langmuir with mass transport limitation.
Source text: as §7

Experiment [22] addresses T7, Biotinylated human CXCL13 (Almac). Nature of the experiment: SPR (BIAcore 2000), 28 RU biotinylated human CXCL13 captured on streptavidin, Fab 0.065-2.105 nM flowed. The text has this: Standard amine linkage chemistry was employed to create blank (Fc 1) and 228 and 303 RU surfaces of Streptavidin (Perbio/Pierce 21125) on Flow cells (Fc) 2 and 3, respectively, of a normalized CM5 chip (BIAcore, BR-1000-14). This Fc 3 streptavidin surface was used to capture 28 RUs human CXCL13 biotinylated near the C-terminus (Almac custom synthesis).

B1 had an IC50 in [1] of 0.2 nM.

B2 showed an IC50 in experiment [2] of 0.8 nM.

For the molecule B3, the Kd in experiment [3] was 0.285 nM; in experiment [16], 0.033 nM and 0.0291 nM; in [17], 0.0414 nM; in experiment [18], 0.259 nM; in experiment [19], 0.0311 nM; in experiment [21], 0.0322 nM and 0.0504 nM and 0.0417 nM. In addition, the koff is 0.00104 s⁻¹ in experiment [3]; 0.00065 s⁻¹ and 0.000599 s⁻¹ in experiment [16]; 0.000712 s⁻¹ in experiment [17]; 0.000524 s⁻¹ in experiment [18]; 0.000625 s⁻¹ in experiment [19]; 0.000684 s⁻¹ and 0.000715 s⁻¹ and 0.000736 s⁻¹ in experiment [21]. Besides, the kon in [3] is 3.63e+06 M⁻¹ s⁻¹; in [16], 1.97e+07 M⁻¹ s⁻¹ and 2.05e+07 M⁻¹ s⁻¹; in experiment [17], 1.77e+07 M⁻¹ s⁻¹; in [18], 2.02e+06 M⁻¹ s⁻¹; in experiment [19], 2.01e+07 M⁻¹ s⁻¹; in experiment [21] it was 2.13e+07 M⁻¹ s⁻¹ and 1.42e+07 M⁻¹ s⁻¹ and 1.76e+07 M⁻¹ s⁻¹. For the same molecule, the “IC50, CXCL13 mediated CHO Gqi5 hCXCR5 c4.4 Ca2+ release assay (FLIPR)” value in experiment [4] stood at 10.4 nM. For the same molecule, the binding result in [5], in [6], in experiment [7], in [8], in experiment [9] and in experiment [10] was “no binding (tested: 1 µM)” in each case. The “IC50, B300.19 hCXCR5 chemotaxis assay (ED80 concentration of CXCL13)” value in experiment [11] was determined as 4.53 nM; in experiment [12] it was 3.94 nM; in experiment [13], 6.22 nM. Also, the “IC50, LANCE CXCL13 cAMP assay (CHO Gqi5 hCXCR5 cells)” value in experiment [14] worked out at 0.3 nM; in experiment [15] it was 1.6 nM. For the same molecule, in [20], the “IC50, human tonsillar B cell chemotaxis assay (100 nM human non-glycosylated CXCL13, ED80; n=4)” value is 9.59 nM.

B4: in experiment [22], the affinity, expressed as Kd, was 0.185 nM; the koff was determined as 0.00166 s⁻¹; the kon was found to be 8.98e+06 M⁻¹ s⁻¹.

The IC50 is the concentration at which inhibition is half-maximal. Read a high IC50 as lower potency. For orientation: Kd means the constant that tells how readily two partners part at equilibrium. Higher therefore signals weaker binding. As usually defined, the koff is the first-order rate constant of dissociation. A high value points to a short-lived complex. As a reminder, the kon is a measure of how fast the partners come together.

The values are drawn from patent US20080199481A1 (AstraZeneca / MedImmune, published 2008).
